# According to article PMC10879482:
# Legend:
# [1] = target: human SIDT1 (hSIDT1) (human) (UniProt Q9NXL6); test: cryo-EM structure; hSIDT1 at pH 5.5 (hSIDT1^pH5.5); homodimer, dimer interface rearranged against pH 7.5
# [2] = target: human SIDT1 (hSIDT1) (human) (UniProt Q9NXL6); test: cryo-EM structure; hSIDT1 at pH 7.5 (hSIDT1^pH7.5); cholesteryl hemisuccinate in the buffer during membrane solubilization; homodimer
substance,measurement,setting,value
human SIDT1 (hSIDT1) (from UniProt Q9NXL6 20-827) (natural protein),stoichiometry N,[1],2
same,stoichiometry N,[2],2
